This is an account of results in patent publication US20230348587A1 (Astellas, published 2023).

In experiment [1] the target is T1, human mouse TSPAN8-GFP chimeric protein on CHO-K1 cell (human; mouse) (UniProt P19075).
T1 sequence: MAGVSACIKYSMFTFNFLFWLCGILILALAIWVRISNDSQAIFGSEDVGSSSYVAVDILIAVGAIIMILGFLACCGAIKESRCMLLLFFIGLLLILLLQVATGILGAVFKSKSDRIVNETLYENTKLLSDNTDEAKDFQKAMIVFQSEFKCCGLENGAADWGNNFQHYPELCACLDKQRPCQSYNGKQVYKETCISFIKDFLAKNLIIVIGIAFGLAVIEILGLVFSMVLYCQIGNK
Put plainly: flow cytometry on GFP-positive CHO-K1 cells; against wild-type human TSPAN8 expressing CHO-K1 cell. For orientation: A flow cytometer gives signals particle by particle.

Experiment [2] addresses T2, human TSPAN8-GFP protein on wild-type human TSPAN8 expressing CHO-K1 cell (human, UniProt P19075 1-237).
T2 construct: whole, on cells; Transiently expressed; GFP-positive cells were analysed; also called Human TSPAN8 (Wild type); not shown: GFP of the pCMV6-AC-GFP vector (ORIGENE, PS100010)
T2 chain: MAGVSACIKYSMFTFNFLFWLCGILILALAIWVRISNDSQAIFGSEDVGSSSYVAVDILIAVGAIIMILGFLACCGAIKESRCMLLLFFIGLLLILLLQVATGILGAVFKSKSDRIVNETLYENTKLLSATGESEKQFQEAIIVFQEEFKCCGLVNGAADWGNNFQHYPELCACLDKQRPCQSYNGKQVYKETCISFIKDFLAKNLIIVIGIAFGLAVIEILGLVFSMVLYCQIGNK
Kind of experiment: flow cytometry on GFP-positive CHO-K1 cells; MFI minus MFI on mock cell.

The target in experiment [3] is T3, human TSPAN8(T131N)-GFP on CHO-K1 cell (human, UniProt P19075 1-237).
T3 construct: whole, on cells; Transiently expressed; GFP-positive cells were analysed; also called T131N mutant; not shown: GFP of the pCMV6-AC-GFP vector (ORIGENE, PS100010)
T3 sequence (looked up): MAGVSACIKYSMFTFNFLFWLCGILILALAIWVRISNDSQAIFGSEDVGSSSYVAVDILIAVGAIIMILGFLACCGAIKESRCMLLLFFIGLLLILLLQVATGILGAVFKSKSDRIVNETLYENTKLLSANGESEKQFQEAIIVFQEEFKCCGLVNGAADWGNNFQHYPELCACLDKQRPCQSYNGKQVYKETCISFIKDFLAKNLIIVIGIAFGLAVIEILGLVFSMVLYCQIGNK
Described as above.

Experiment [4] has as its target T4, human TSPAN8(T131A)-GFP on CHO-K1 cell (human, UniProt P19075 1-237).
T4 construct: whole, on cells; Transiently expressed; GFP-positive cells were analysed; also called T131A mutant; not shown: GFP of the pCMV6-AC-GFP vector (ORIGENE, PS100010)
T4 sequence (looked up): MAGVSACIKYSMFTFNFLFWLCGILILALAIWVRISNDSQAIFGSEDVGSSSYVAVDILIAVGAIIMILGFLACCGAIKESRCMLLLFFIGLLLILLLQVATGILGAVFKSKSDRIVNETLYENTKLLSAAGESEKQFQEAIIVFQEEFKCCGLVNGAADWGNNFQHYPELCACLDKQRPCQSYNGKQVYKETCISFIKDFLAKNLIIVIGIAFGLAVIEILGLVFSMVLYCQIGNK
The experiment is described as above.

The target in experiment [5] is T5, human rat TSPAN8-GFP chimeric protein on CHO-K1 cell (human; rat, UniProt P19075 156-237).
T5 construct: range 156-237; whole protein on cells; also called Human rat chimeric TSPAN8; human rat TSPAN8 chimeric protein; not shown: GFP of the pCMV6-AC-GFP vector (ORIGENE, PS100010)
T5 sequence: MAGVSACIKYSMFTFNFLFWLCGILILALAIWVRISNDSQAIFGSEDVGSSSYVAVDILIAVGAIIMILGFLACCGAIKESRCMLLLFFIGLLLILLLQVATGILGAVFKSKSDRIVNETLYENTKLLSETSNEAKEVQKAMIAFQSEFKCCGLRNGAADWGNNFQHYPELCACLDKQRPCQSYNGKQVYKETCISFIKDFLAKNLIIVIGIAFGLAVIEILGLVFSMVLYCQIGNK
The description is as above.

Experiment [6] concerns the target T1, human mouse TSPAN8-GFP chimeric protein on CHO-K1 cell (human; mouse). Described as above.
The target of experiment [7] is T3, human TSPAN8(T131N)-GFP on CHO-K1 cell. Put plainly: flow cytometry on GFP-positive CHO-K1 cells; against wild-type human TSPAN8 expressing CHO-K1 cell. From the text:
(§1) Each vector produced was introduced into the CHO-K1 cell, to produce a cell transiently expressing a human TSPAN8-GFP protein, a human mouse TSPAN8-GFP chimeric protein or a human rat TSPAN8-GFP chimeric protein. The cell produced will be referred to as a wild-type human TSPAN8 expressing CHO-K1 cell, a human mouse TSPAN8 chimeric protein expressing CHO-K1 cell or a human rat TSPAN8 chimeric protein expressing CHO-K1 cell. Further, a cell in which a pCMV6-AC-GFP vector was introduced into a CHO-K1 cell (referred to as a mock cell) was produced. The bindings of 16B11, 16B12 and TAL69 to GFP-positive cells in these cells were measured by flow cytometry. No decrease in binding of TAL69 was observed either to the human rat or human mouse TSPAN8 chimeric protein expressing CHO-K1 cell. […] Meanwhile, the binding to the human mouse TSPAN8 chimeric protein expressing CHO-K1 cell attenuated as compared with that to the wild-type human TSPAN8 expressing CHO-K1 cell (FIGS. 5-1).
(§2) Further, in order to check whether or not the amino acid at position 131 of human TSPAN8 contributed to the binding of 16B11 or 16B12, a substitute of the amino acid was produced. Specifically, a vector containing a nucleotide sequence encoding a human TSPAN8-GFP fusion protein in which threonine (T) at position 131 of the amino acid sequence of human TSPAN8 in human TSPAN8-GFP of SEQ ID NO: 2 was replaced with alanine (A) or asparagine (N) (respectively referred to as “human TSPAN8(T131A)-GFP” or “human TSPAN8(T131N)-GFP”) was produced, and such a vector was transfected into the CHO-K1 cell, to construct a cell transiently expressing human TSPAN8(T131A)-GFP or human TSPAN8(T131N)-GFP. The cell constructed will be referred to as a human TSPAN8(T131A) expressing CHO-K1 cell or a human TSPAN8(T131N) expressing CHO-K1 cell. The bindings of 16B11, 16B12 and TAL69 to GFP-positive cells in these cells were measured by flow cytometry (FIGS. 5-3). As a result, the bindings of 16B11 and 16B12 to the human TSPAN8(T131A) expressing CHO-K1 cell and the human TSPAN8(T131N) expressing CHO-K1 cell attenuated as compared with the bindings to the wild-type human TSPAN8 expressing CHO-K1 cell.

For experiment [8], the target named is T4, human TSPAN8(T131A)-GFP on CHO-K1 cell. The description is as above.
Text: as §1, §2

Experiment [9] has as its target T5, human rat TSPAN8-GFP chimeric protein …. The description is as above.
Text: as §1, §2

In experiment [10] the target is T6, human TSPAN8-Myc-DDK expressed on CHO-K1 cell (human).
T6 construct: also called TSPAN8 (Myc-DDK-tagged)-Human tetraspanin 8 (ORIGENE, RC202694)
T6 chain: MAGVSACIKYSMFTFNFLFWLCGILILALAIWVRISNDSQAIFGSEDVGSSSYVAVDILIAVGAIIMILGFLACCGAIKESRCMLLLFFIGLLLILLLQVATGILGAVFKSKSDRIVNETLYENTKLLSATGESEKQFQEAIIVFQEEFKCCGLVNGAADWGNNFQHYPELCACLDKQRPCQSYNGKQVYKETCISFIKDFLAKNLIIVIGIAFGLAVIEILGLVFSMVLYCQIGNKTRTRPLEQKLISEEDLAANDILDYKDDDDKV
Put plainly: binding to human TSPAN8-Myc-DDK expressed CHO-K1 cell. The procedure: For further specifying an antigen, an experiment of binding to a human TSPAN8-Myc-DDK expressed CHO-K1 cell was performed. The human TSPAN8-Myc-DDK expressed CHO-K1 cell was produced by transfecting TSPAN8 (Myc-DDK-tagged)-Human tetraspanin 8 (TSPAN8) (ORIGENE, RC202694) (SEQ ID NO: 2) into a CHO-K1 cell. As a result, it was confirmed that ten antibodies of 16B11, 16B12, 5B7, 9F6, 12C12, 13A9, 15D1, 18C10, 19E4 and 21F7 (referred to also as the “ten anti-TSPAN8 antibodies”) bound to the human TSPAN8-Myc-DDK expressed CHO-K1 cell, and recognize TSPAN8 as an antigen.

The target of experiment [11] is T7, human mouse TSPAN8-GFP chimeric protein on CHO-K1 cell (human; mouse, UniProt P19075 156-237).
T7 construct: range 156-237; whole protein on cells; also called Human mouse chimeric TSPAN8; human mouse TSPAN8 chimeric protein; not shown: GFP of the pCMV6-AC-GFP vector (ORIGENE, PS100010)
T7 sequence: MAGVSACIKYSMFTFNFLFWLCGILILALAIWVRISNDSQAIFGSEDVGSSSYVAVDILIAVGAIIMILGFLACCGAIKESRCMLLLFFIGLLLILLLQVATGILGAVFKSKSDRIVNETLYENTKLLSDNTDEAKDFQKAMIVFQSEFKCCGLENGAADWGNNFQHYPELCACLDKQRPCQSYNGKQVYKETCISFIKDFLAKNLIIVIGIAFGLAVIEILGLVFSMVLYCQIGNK
Kind of experiment: flow cytometry on GFP-positive CHO-K1 cells; MFI minus MFI on mock cell.

The target of experiment [12] is T7, human mouse TSPAN8-GFP chimeric protein …. Put plainly: flow cytometry on GFP-positive CHO-K1 cells; against wild-type human TSPAN8 expressing CHO-K1 cell.
Text: as §1, §2

B1: 16B11 (antibody, V domains shown)
VH: QVQLVESGGGVVQPGRSLRLSCAASGFTFSSYGMHWVRQAPGKGLEWVAVIWYDGRNKYYADSVKGRFTISRDNSKNTLYLQMNSLRAEDTAVYYCTRDHSGSGSYYIDYWGQGTLVTVSS
VL: EIAMTQSPATLSVSPGERATLSCRASQSVSSNLAWYQQKPGQAPRLLIYGASTRATGLPARFSGSGSGTEFTLTISSLQSEDFAVYYCQQYNNFWTFGQGTKVEIKR
notes: VelocImmune hybridoma antibody: human variable regions with mouse constant regions (chimeric); Used Alexa Fluor647-labeled in some assays; also called antibody 16B11; anti-TSPAN8 antibody 16B11
As to B1, the ΔMFI relative value (relative (wild-type human TSPAN8 = 100)) in [1] came out at 3; in [7], 2. In addition, the ΔMFI in experiment [2] is 173000; in experiment [3] it was 3460; in [4] it was 23400; in experiment [5], 161000; in [6], 5270. In addition, the results for the ΔMFI relative value in [8] and in experiment [9] were 14 relative (wild-type human TSPAN8 = 100) and 93 relative (wild-type human TSPAN8 = 100), respectively. In addition, the binding result in experiment [10] is listed as “binds”.

B2: 16B12 (antibody, V domains shown)
VH: QVQLVESGGGVVQPGRSLRLSCAASGFIFSSYGMHWVRQAPGKGLEWVAVIWYDGSNKYYADSVKGRFTISRDNSKNTLYLQMNSLRAEDTAMYYCARDHYGSGTYYIDYWGQGTLVTVSS
VL: EIVMTQSPATLSVSPGERATLSCRASQTVSSNLAWYQQKPGQAPRLLIYGASTRATGFPARFSGSGSGTEFTLTISSLQSEDFAVYYCQQYNNWWTFGQGTKVEIKR
notes: VelocImmune hybridoma antibody: human variable regions with mouse constant regions (chimeric); also called antibody 16B12; anti-TSPAN8 antibody 16B12
For the molecule B2, the ΔMFI in [11] amounted to 102; in experiment [5] it was 22400. For the same molecule, the ΔMFI relative value was 0 relative (wild-type human TSPAN8 = 100) in [12] and 84 relative (wild-type human TSPAN8 = 100) in experiment [9].

B3: Purified anti-human TSPAN8 Antibody (BioLegend, 362702 Clone TAL69) (antibody, V domains shown)
VH: EVKLLESGGGLVQPGGSMRLSCAASGFTFTDFYMNWIRQPAGKAPEWLGFIRNKASGYTTEYNPSVKGRFTISRDNTQNMLYLQMNTLRAEDTATYYCARAHSYYGYDYFDYWGQGVMVTVSS
VL: DIQMTQSPASLSASLEEIVTITCQASQDIGNWLSWYQQKPGKSPQLLIYGATSLADGVPSRFSGSRSGTQYSLKISRLQVEDIRIYYCLQAYSAPWTFGGGTKLELK
Regarding B3, the ΔMFI in [2] came to 133000; in [3] it was 143000; in [4] it was 184000; in experiment [11] it was 305000; in experiment [5] it was 96200. For the same molecule, the ΔMFI relative value was 108 relative (wild-type human TSPAN8 = 100) in experiment [7], 139 relative (wild-type human TSPAN8 = 100) in experiment [8], 230 relative (wild-type human TSPAN8 = 100) in experiment [12] and 72 relative (wild-type human TSPAN8 = 100) in [9].
